# Measurements as given in PMC8566583.
# Several values for one entry are separate records, joined by “and”; a condition that tells them apart may be missing. Equal entries are not always repeated.
# Tests used:
# PARP1 (Homo sapiens) = PARP1 (Homo sapiens) (UniProt P09874); conditions: cited from earlier work
# PARP2 (Homo sapiens) = PARP2 (Homo sapiens) (UniProt Q9UGN5); conditions: cited from earlier work
# [1] = target: Recombinant wild-type human PARP1 (human) (UniProt P09874)
# [2] = target: Recombinant wild-type murine PARP2 (murine) (UniProt O88554)
# Chain of UniProt O88554 (O88554 whole entry): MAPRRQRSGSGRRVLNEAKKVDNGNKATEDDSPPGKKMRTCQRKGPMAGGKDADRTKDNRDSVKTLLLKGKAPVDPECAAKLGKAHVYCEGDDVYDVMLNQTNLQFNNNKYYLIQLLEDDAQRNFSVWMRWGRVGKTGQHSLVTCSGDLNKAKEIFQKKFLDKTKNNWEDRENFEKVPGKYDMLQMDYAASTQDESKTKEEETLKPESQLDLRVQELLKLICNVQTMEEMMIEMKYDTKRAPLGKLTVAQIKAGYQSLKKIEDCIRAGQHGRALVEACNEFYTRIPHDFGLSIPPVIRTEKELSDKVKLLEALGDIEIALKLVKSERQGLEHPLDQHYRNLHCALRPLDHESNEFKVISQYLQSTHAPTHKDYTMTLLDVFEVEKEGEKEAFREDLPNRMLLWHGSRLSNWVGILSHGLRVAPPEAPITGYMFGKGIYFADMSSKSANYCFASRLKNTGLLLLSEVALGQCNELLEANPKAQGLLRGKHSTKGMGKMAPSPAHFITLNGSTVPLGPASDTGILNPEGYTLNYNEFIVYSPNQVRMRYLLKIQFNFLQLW
# Chain of UniProt Q9UGN5 (Q9UGN5 whole entry): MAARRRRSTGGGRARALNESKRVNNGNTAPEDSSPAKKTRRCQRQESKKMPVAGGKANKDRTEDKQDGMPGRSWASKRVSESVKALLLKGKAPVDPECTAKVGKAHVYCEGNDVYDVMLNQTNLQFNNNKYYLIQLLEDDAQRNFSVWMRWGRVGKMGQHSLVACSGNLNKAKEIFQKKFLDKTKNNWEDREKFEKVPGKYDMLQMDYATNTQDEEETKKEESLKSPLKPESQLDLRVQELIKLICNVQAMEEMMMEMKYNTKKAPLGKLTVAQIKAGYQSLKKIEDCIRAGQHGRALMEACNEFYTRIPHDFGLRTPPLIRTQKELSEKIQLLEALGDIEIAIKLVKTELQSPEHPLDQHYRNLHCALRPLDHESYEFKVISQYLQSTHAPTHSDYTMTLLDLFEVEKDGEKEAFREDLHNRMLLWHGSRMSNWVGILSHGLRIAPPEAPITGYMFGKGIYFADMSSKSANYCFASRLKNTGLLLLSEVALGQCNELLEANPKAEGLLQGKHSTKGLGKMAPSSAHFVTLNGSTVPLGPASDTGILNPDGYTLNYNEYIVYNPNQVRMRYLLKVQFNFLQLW
"DNA-independent autoPARylation level of PARP1 (500 nM, 1 uM [32P]NAD+, no DNA or NCP) with HPF1 from 60 nM to 16 uM, relative to no HPF1; maximal effect [1] [fold]","DNA-independent autoPARylation level of PARP2 (500 nM, 1 uM [32P]NAD+, no DNA or NCP) with HPF1 from 60 nM to 16 uM, relative to no HPF1; maximal effect (at a 4-fold excess of HPF1) [2] [fold]",Molecule,Kd (PARP1 (Homo sapiens)),Kd (PARP2 (Homo sapiens)) [nM]
–,–,HPF1 (from UniProt Q9NWY4),> 3000 nM and 790 nM,280
1.6,2.4,"histone PARylation factor 1 (HPF1), recombinant human (natural protein) MVGGGGKRRPGGEGPQCEKTTDVKKSKFCEADVSSDLRKEVENHYKLSLPEDFYHFWKFCEELDPEKPSDSLSASLGLQLVGPYDILAGKHKTKKKSTGLNFNLHWRFYYDPPEFQTIIIGDNKTQYHMGYFRDSPDEFPVYVGINEAKKNCIIVPNGDNVFAAVKLFLTKKLREITDKKKINLLKNIDEKLTEAARELGYSLEQRTVKMKQRDKKVVTKTFHGAGLVVPVDKNDVGYRELPETDADLKRICKTIVEAASDEERLKAFAPIQEMMTFVQFANDECDYGMGLELGMDLFCYGSHYFHKVAGQLLPLAYNLLKRNLFAEIIEEHLANRSQENIDQLAA",–,–
